# Laboratory results as given in PMC2956612 (Structure (London, England : 1993), 2010).
# Ends that are not written are not given here. * marks the point of attachment. Biotin = O=C1N[C@H]2[C@H](CS[C@H]2CCCCC(=O)*)N1
# T1: full length VDR/RXRα heterodimer (His-hVDR with Flag-hRXRα) (human, UniProt P11473 1-427; P19793 1-462)
# T1 sequence (looked up) 1: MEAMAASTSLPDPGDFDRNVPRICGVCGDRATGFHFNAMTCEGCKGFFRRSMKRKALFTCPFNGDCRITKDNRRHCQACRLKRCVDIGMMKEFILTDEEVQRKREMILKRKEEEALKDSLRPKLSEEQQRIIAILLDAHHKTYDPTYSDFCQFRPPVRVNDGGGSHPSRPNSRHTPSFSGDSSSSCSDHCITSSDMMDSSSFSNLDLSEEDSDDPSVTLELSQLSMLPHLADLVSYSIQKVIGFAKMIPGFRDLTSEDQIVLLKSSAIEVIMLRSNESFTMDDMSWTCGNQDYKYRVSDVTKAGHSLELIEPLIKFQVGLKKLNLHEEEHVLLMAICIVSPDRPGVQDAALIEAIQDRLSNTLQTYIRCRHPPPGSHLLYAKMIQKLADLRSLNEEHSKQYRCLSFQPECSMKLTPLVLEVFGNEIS
# T1 sequence (looked up) 2: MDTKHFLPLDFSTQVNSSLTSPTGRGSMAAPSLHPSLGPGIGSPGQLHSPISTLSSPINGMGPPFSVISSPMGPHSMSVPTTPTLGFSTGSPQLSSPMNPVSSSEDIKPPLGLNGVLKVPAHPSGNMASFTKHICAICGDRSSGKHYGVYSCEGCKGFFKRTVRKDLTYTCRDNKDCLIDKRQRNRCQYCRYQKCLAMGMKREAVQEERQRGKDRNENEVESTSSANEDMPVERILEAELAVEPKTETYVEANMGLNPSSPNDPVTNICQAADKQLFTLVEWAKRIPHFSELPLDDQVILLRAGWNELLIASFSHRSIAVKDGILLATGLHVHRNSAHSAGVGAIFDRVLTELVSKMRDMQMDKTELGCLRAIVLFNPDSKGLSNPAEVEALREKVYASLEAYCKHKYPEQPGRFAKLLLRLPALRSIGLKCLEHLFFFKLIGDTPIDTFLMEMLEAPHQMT
# B1: biotinylated SRC1-NR2 peptide (peptide)
# peptide: Biotin-KGGGGSCPSSHSSLTERHKILHRLLQEGSPSDI
# B2: biotinylated DRIP 205-2 peptide (peptide)
# peptide: Biotin-KGGTPPPVSSMAGNTKNHPMLMNLLKDNPAQDF
# Target: T1, full length VDR/RXRα heterodimer …
# Assay: AlphaScreen or HTRF
row,Binder,binding result
1,B1,binds
2,B2,binds
